B1: human chorionic gonadotropin (hCG), highly purified, CR-125, NICHD (ligand)
chain 1: not shown
chain 2: SKEPLRPRCRPINATLAVEKEGCPVCITVNTTICAGYCPTMTRVLQGVLPALPQVVCNYRDVRFESIRLPGCPRGVNPVVSYAVALSCQCALCRRSTTDCGGPKDHPLTCDDPRFQDSSSSKAPPPSLPSPSRLPGPSDTPILPQ

Experiments:
[1] = target: B1; experiment: displacement of biotinylated-hCG by unlabeled hCG on transfected Sf9 cells, HRP-streptavidin ELISA
Protocol: A competitive binding assay was performed to determine whether hCG would bind to the chimeric protein containing both hLH-R-ECD and hCG-β-CTP. After 24 hr of transfection with recombinant baculovirus, Sf9 insect cells were incubated for 24 hr at 27° C. with 20 ng/μl of biotinylated-hCG and increasing concentrations of unlabeled hCG as the competitor. The Sf9 cells infected with the recombinant baculovirus containing ECD of LH-R alone was set up as the control. The binding of biotinylated-hCG on the surface of the Sf9 insect cells was examined by ELISA using horseradish peroxidase (HRP)-streptavidin conjugate.

[2] = target: recombinant chimeric hLH-R-hCG-β fusion protein (full-length human lutropin hormone receptor, Arg-Ser linker, … (human)); experiment: cell-based or functional assay

binding result [1] | intracellular cAMP, increase over baseline [2] | Binder
binds |  | recombinant chimeric protein hLH-R-ECD-hCG-β-CTP (extracellular domain of hLH-R, Gly-Thr linker, carboxyl terminal peptide of hCG-β) (receptor, The vector was pBlueBac4.5/V5-His; also called chimera 3; hLH-R-ECD/hCG-CTP) LPRALREALCPEPCNCVPDGALRCPGPTAGLTRLSLAYLPVKVIPSQAFRGLNEVIKIEISQIDSLERIEANAFDNLLNLSEILIQNTKNLRYIEPGAFINLPRLKYLSICNTGIRKFPDVTKVFSSESNFILEICDNLHITTIPGNAFQGMNNESVTLKLYGNGFEEVQSHAFNGTTLTSLELKENVHLEKMHNGAFRGATGPKTLDISSTKLQALPSYGLESIQRLIATSSYSLKKLPSRETFVNLLEATLTYPSHCCAFRNLPTKEQNFSHSISENFSKQCESTVRKVSNKTLYSSMLAESELSGWDYEYGFCLPKTPRCAPEPGTLTCDDPRFQDSSSSKAPPPSLPSPSRLPGPSDTPILPQ
 | ~6 fold | B1
